System: K4 kissing-loop RNA reporter
Assay: apparent KD of K4 kissing-loop reporter; higher = weaker reporter binding
Details: Eterna round: R107
Experimental: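 RNA-MaP round R107: designed RNA switches with theophylline, tryptophan, arginine or FMN aptamers are transcribed on-chip within common flanks. They are titrated with a labelled K4 kissing-loop RNA reporter in RNA-MaP buffer (100 mM Tris pH 7.5, 80 mM KCl, 4 mM MgCl2), without ligand or with the indicated ligand. Median apparent KD per design.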

[1] = input ligand: theophylline 20 uM
[2] = input ligand: tryptophan 2.4 mM
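Also: bound reporter read as fluorescence of individual clusters on recovered sequencing chips by microscopy, with normalized cluster intensities fitted with a binding model.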

| Sequence | apparent KD of K4 kissing-loop reporter (input ligand: FMN 200 uM) [nM] | apparent KD of K4 kissing-loop reporter (input ligand: arginine 13.2 mM) [nM] | apparent KD of K4 kissing-loop reporter (input ligand: none) [nM] | apparent KD of K4 kissing-loop reporter [1] [nM] | apparent KD of K4 kissing-loop reporter [2] [nM] |
| --- | --- | --- | --- | --- | --- |
| UCUGGUAUAUCUGAUACCAGAGUAUAGUAUCAAUUGCAUAUGGAGUGAUGUUCCAUAUAACUCCCUUGGCAGCAGAUCUAUCUCU [Same State Theophylline B GF 25] | 292 | 308 | 325 | 386 | 288 |
| UGACAUUGCUCAGAUACCAGACAAGAGGAUCACCCUUGUGCCAAACGUACAAUAAUAAUUGUCCCUUGGCAGCUGAGCAAUGUCU [TheoBX 14] | 73.2 | 25.4 | 16.3 | 80.7 | 51.6 |
| UGACAUUGCUCAGAUACCAGACUUGAGGAACACCCAAGUGCCAAACGUACAAUAAUAAAAGUCCCUUGGCAGCUGAGCAAUGUCU [TheoBX 14] | 111 | 53.6 | 82.1 | 62.8 | 59.8 |
| UGACUGGACUGAAGGAGCGAGCGAGACAAAGUCUCGAAAAUUCAGUGAUGUUGAAAUAUAACUCAGGUAGGUCGCAGUCUAGUCU [ArgBS 4 #SwitchBubble #StaticStem] | 328 | 303 | 377 | 313 | 304 |
| UGACUGGACUGAAGGAGCGCUAAACUCCUAGUGAUGUUAGGAAAACGAGACAAAGUCUCGAAGCAGGUAGGUCGCAGUCUAGUCU | 172 | 147 | 177 | 162 | 169 |
| UGACUGGACUGAAGGAGCGCUAAACUCCUAGUGAUGUUAGGAAAUACGAGACAAAGUCUCGGGCAGGUAGGUCGCAGUCUAGUCU [ArgBS 19 #SwitchBubble #StaticStem] | 122 | 118 | 132 | 128 | 101 |
| UGACUGGACUGAAGGAGCGCUAAACUCCUAGUGAUGUUAGGAUAACGAGACAAAGUCUCGAAGCAGGUAGGUCGCAGUCUAGUCU | 149 | 110 | 117 | 133 | 128 |
| UGACUGGACUGAAGGAGCGCUGAACUCCUAGUGAUGUUAGGACAACGAGACAAAGUCUCGAAGCAGGUAGGUCGCAGUCUAGUCU | 154 | 129 | 154 | 152 | 184 |
| UGACUGGACUGAAGGAGCGCUGAACUCCUAGUGAUGUUAGGACAACGAGACAAAGUCUCGCGGCAGGUAGGUCGCAGUCUAGUCU | 159 | 119 | 121 | 145 | 131 |
| UGACUGGACUGAAGGAGCGCUUAACUCCUAGUGAUGUUAGGACAACGAGACAAAGUCUCGAAGCAGGUAGGUCGCAGUCUAGUCU | 217 | 155 | 204 | 198 | 199 |
| UGACUGGACUGAAGGAGCGGGCGAGACAAAGUCUCGAACUCGUAGUGAUGUUACGAAAUAACCCAGGUAGGUCGCAGUCUAGUCU | 77.8 | 62 | 74.9 | 67.2 | 74.9 |
| UGACUGGACUGAAGGAGCGUUGAAGGAGCGUAAGGAGUGAUGUUCCAUACAGGUAGGUCGCAGCAGGUAGGUCGCAGUCUAGUCU [ArgBS 26 #DoubleAptamer #SwitchBubble] | 204 | 245 | 229 | 171 | 281 |
| UGACUGGACUGAAGGAGCGUUGAAGGAGCGUAGGCAGUGAUGUUGCCUACAGGUAGGUCGCAGCAGGUAGGUCGCAGUCUAGUCU [ArgBS 27 #DoubleAptamer #SwitchBubble] | 132 | 92.1 | 108 | 66.1 | 107 |
| UGACUGGAUGGAAGGAGCGCUAAACUCCUAGUGAUGUUAGGGACACGAGACAAAGUCUUGAGGCAGGUAGGUCGCCAUCUAGUCU [FiskerMod 8 - Jieux - Same State - Arginine B] | 379 | 211 | 251 | 250 | 241 |
| UGACUGGAUGGAAGGAGCGCUAAACUCCUAGUGAUGUUAGGGAUAUGAGGCAAAGCCUCGAGGCAGGUAGGUCGCCAUCUAGUCU [FiskerMod 19 - Jieux - Same State - Arginine B] | 138 | 114 | 135 | 142 | 122 |
| UGACUGGAUUGAAGGAGCGCUAAACUCCUAGUGAUGUUAGGGAAACAAGACAAAGUCUUGAGGCAGGUAGGUCGCAAUCUAGUCU [FiskerMod 4 - Jieux - Same State - Arginine B] | 182 | 149 | 173 | 234 | 175 |

| Sequence | apparent KD of K4 kissing-loop reporter (input ligand: FMN 200 uM) [nM] | apparent KD of K4 kissing-loop reporter (input ligand: arginine 13.2 mM) [nM] | apparent KD of K4 kissing-loop reporter (input ligand: none) [nM] | apparent KD of K4 kissing-loop reporter [1] [nM] | apparent KD of K4 kissing-loop reporter [2] [nM] |
| --- | --- | --- | --- | --- | --- |
| UGAGGAGAUUAUGAUACCAGCAGAGAGAGAGAGGAAGUAUAGUGAUGUUAUAUGAGAUAAUGCCCUUGGCAGCAUAAGAAGAAGG [#20 K4 Theophylline B Same State] | 182 | 133 | 148 | 147 | 140 |
| UGAUACCAGACGGCCGCCACUAGGACCGGGAGUGAUGUUCCCAAUUUAAAAUGCUCGGCCGCCACUAGGACCGGGUCUGGUAUCU [TrypBX 27 #DoubleAptamer #SwitchBubble] | 173 | 207 | 198 | 305 | 109 |
| UGAUACCAGACGGCCGCCACUCCCGUAAGUCAAAGACUUACGAAGAGAGUUGUCCAGUGAUGUUGGAGGACCGGGUCUGGUAUCU [FiskerMod 13 - Jieux - Exclusion - Tryptophan B] | 230 | 208 | 207 | 202 | 260 |
| UGAUACCAGACGGCCGCCACUCCCGUAAGUCAAAGACUUACGAAGAGGGUUUUUUAGUGAUGUUGGAGGACCGGGUCUGGUAUCU [FiskerMod 18 - Jieux - Exclusion - Tryptophan B] | 618 | 256 | 618 | 653 | 2320 |
| UGAUACCAGACGGCCGCCACUCCUGCAGUCAAAGACUGCAAGGAAAUAUUCGUCCAGUGAUGUUGGAGGACCGGGUCUGGUAUCU [TrypBX 9 #SwitchBubble #Palindromic #StaticStem] | 921 | 687 | 820 | 670 | 1060 |
| UGAUACCAGACGGCCGCCACUUCUGCAAGUCAAAGACUUGCUAAGGGAAUCGUCCAGUGAUGUUGGAGGACCGGGUCUGGUAUCU [FiskerMod 2 - Jieux - Exclusion - Tryptophan B] | 1050 | 823 | 1200 | 999 | 1050 |
| UGAUACCAGACUGAUACCAGCAGUGAUGUUGCUGAAAAUAAUAAAUGAGUCAAAGACUCGGGCCCUUGGCAGCAGUCUGGUAUCU [TheoBX 8 #SwitchBubble #StaticStem] | 111 | 114 | 116 | 117 | 95.9 |
| UGAUACCAGACUGAUACCAGCCAGUGAUGUUGGCUAAUCCAAGAAGGAGUCAAAGACUCCGGCCCUUGGCAGCAGUCUGGUAUCU [TheoBX 3 #SwitchBubble #StaticStem] | 117 | 104 | 111 | 110 | 109 |
| UGAUACCAGACUGAUACCAGCGAGUGAUGUUCGUUGAAAUCAGGGUCAAAGACCCUGUCUCGCCCUUGGCAGCAGUCUGGUAUCU [TheoBX 22 #SwitchBubble #StaticStem] | 690 | 704 | 829 | 320 | 785 |
| UGAUACCAGACUGAUACCAGCUAGUGAUGUUAGCUGAAAUCAGGGUCAAAGACCCUGUCUGGCCCUUGGCAGCAGUCUGGUAUCU [TheoBX 18 #SwitchBubble #StaticStem] | 83.2 | 72.3 | 76.2 | 73.2 | 71.2 |
| UGAUACCAGACUGAUACCAGCUAGUGAUGUUAGCUGAUCUAAGGACCGUCAAAGACGGCUAGCCCUUGGCAGCAGUCUGGUAUCU [TheoBX 13 #SwitchBubble #StaticStem] | 120 | 105 | 121 | 130 | 121 |
| UGAUAGCCAGUGAUGUUGGCAUAUACUGAAGGAGCGCGUGAAAACGCAGGUAGGUCGCAGUUCCUUGCCAAUUGAUCGAAAGAUC [#08 K4 Arginine A Exclusion] | 162 | 200 | 183 | 207 | 162 |
| UGAUAGGACAGAAGGAGCGGAAGUGAUGUUUCCAAAAGAUAUGGUCGACAAAGUCGACUUUUCCAGGUAGGUCGCUGUCCUAUCU [KL-XARG-B18] | 60.4 | 90.1 | 67.1 | 84.1 | 66.6 |
| UGAUAGGACAGAAGGAGCGGAAUGCUGUCCAAAAGGACAGCAAAUAUAACAGGAGUGAUGUUCCAGGUAGGUCGCUGUCCUAUCU [ArgBX 21 #SwitchBubble #StaticStem] | 246 | 197 | 214 | 199 | 187 |
| UGAUAGGACAGAAGGAGCGGAGGUCGUCAAAGACGACCAAUAACGUUGAUAGGAGUGAUGUUCCAGGUAGGUCGCUGUCCUAUCU [ArgBX 29 #SwitchBubble #StaticStem] | 147 | 127 | 121 | 152 | 95.8 |

From the supplement of paper PMC9170038
